Source: the supplement of paper PMC12764529
± gives the half width of the 95% confidence interval.

Key:
[1] = folding stability dG unfold (combined trypsin and chymotrypsin); higher = more stable
How it was run: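 Designed mini-proteins with no cysteine and under 80 residues were kept only if AlphaFold2 dimer inter-PAE was above 15. In a PA-tagged cDNA display construct, they were digested with trypsin and chymotrypsin and then sequenced. K50 was inferred by Bayesian fitting of counts, and unfolding free energy was derived per protease or combined against a sequence-predicted unfolded-state K50 and a shared folded-state K50.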

[2] = folding stability dG unfold from trypsin proteolysis; higher = more stable
Description: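 Folding stability of de novo designed mini-proteins (<80 aa, no Cys; designed by TrROS, TrMRF, ProteinMPNN and the joint model) was measured by cDNA display proteolysis with trypsin and chymotrypsin. Each protease was used at 11 concentrations in a threefold dilution series plus a no-protease condition. K50 was inferred by Bayesian fitting of sequencing counts, and dG unfold was derived against a sequence-predicted unfolded-state K50 (Tsuboyama et al. method). Sequences shown include variable-length N-terminal GS-type padding (SAGGSAGG...) inside a display construct carrying a PA tag. Rows were kept only if the AF2 dimer inter-PAE was >15, to exclude likely homo-oligomers.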

Sequence	folding stability dG unfold [1] [kcal/mol]	folding stability dG unfold [2] [kcal/mol]
SAGGKVREIDFPMDPGELRDAIDELKREGYMVMIEMPNGQERTIDPNLEDLPPGMPFEIYVMPPKDGSAGGS [r16_31_TrROS]	< -1	-0.212 ± 0.33
SAGGLEAKITEIDEDGYLRIEIVDPETGELIAEIRIKIELPPPPPVPETEEVLDEDGRKRTVTRLYDRSAGG [r13_9_TrROS_Hall]	-0.406 ± 0.23	0.214 ± 0.13
SAGGMDVKVEVKEVELPEAKVTITKITTPDGSTSTITYDPETGTADVTTTTPTSTTTTTLPKSEIKPLSAGG [r13_328_JUSTAS]	0.184 ± 0.31	0.846 ± 0.097
SAGGMGQEELENLPPEVVAGLLAEEALAEAERLGRPNEAVTVEVELGDVPLRIELTADGKIARIEAGSAGGS [r16_431_TrMRF]	< -1	-0.548 ± 0.14
SAGGMPIKPKVELEPLEDAYLVRVRFEAPDRPIEIRRAFASFPDAVREAEEIARFLEEAEIPSPEGGSAGGS [r16_24_TrMRF]	< -1	-0.682 ± 0.66
SAGGMRIWRVPETGVRAEVGTGGPWLVTITSSTTPVPEVRPVPPEEVEAFLRARFPGPVEEVERRPVPESAG [r5_519_JUSTAS]	-0.783 ± 0.19	-0.647 ± 0.34
SAGGMTEIEPDSEEKAEAEIEKVVEEEAEKALKSEKKNVTIKVDVKVVDPVTGKSKTYPVEKLVKLPSAGGS [r8_163_JUSTAS]	< -1	-1.4 ± 0.83
SAGGMTPEELKKVTIEKTVKDPSGNEYLEKSEVKEVEKKDEKYILKIPYTIKDKNGNTISNGTKTIPLSAGG [r13_172_JUSTAS]	< -1	-0.446 ± 0.5
SAGGMVVTSESREPDGTWTVRTVYRDPAGNLTITSSSTSSATVTRKDSAGTPSTAASTTNTYTSAALSAGGS [r8_270_JUSTAS]	-0.281 ± 0.15	0.216 ± 0.067
SAGGNPDWIPIQVPFEDPGDQDAMKKLVEELADIFLDEGIKPIEVEHTNPGHYSVWIPFDGKSIRIHSAGGS [r16_703_TrROS]	-0.888 ± 0.38	-0.37 ± 0.13
SAGGPKEIIKEIAEKYGITEIMPWDDMKNMPPENPNKIHIWPDPEGHYMVMIRAPNGNKKSIEFPIESAGGS [r16_686_TrROS]	< -1	-1.02 ± 0.3
SAGGPVVLKIEIEQKTDGKPQERELVIPVKWDPNGQVDADEIKDWVEEALPPGYKIEDIDVVPPGQPFSAGG [r13_504_TrROS]	< -1	-0.594 ± 0.22
SAGGRGQELTIPNGAPIEDIEELAKKDPDYQVKITEIKMQKPKKDPNGKKRPVPMWMKITLYPAGEKSAGGS [r8_172_TrROS]	< -1	0.116 ± 0.27
SAGGRPTMTAEEAAIRLIKELGIPGVKDIKEVVAVVRGGDPDNKPEKGSAILIKAEVPAEEVERLKKESAGG [r13_552_TrMRF]	-0.299 ± 0.11	0.221 ± 0.045
SAGGSAETYPVTVVVPLPPGGRELPVEELEDLVRETLANVPDLPDVKVEVTLLEPEGRALVRVEFPSAGGSA [r15_1029_TrMRF]	-0.594 ± 0.16	0.0434 ± 0.12
SAGGSAFKELLKEIKEQLQQAPPGEQVEVPIPFPDGYPLRIEINPDENKIEVEYPNGEEEEFDIPPSAGGSA [r15_977_TrROS]	< -1	0.133 ± 0.19
SAGGSAGGEYKVYPVKGDLKEFFDEAYKENPGGVRIIDPDTDEVLDFPPDLSLDEFPGTFVVLGSAGGSAGG [r6_857_TrMRF]	< -1	-0.238 ± 0.13
SAGGSAGGGLSASDTVTFPDGTVVTVAPDATVTITVPAPPDAAGNLTSTVTRTVTVAPGTRVLLSAGGSAGG [r6_90_JUSTAS]	< -1	-0.907 ± 0.41
SAGGSAGGLVIRNPDTNELIELKPGEELTITVTVEAPPAEEETTTETETRTLTLTVRLPEEAEESAGGSAGG [r6_273_TrROS_Hall]	-0.0133 ± 0.21	0.156 ± 0.16
SAGGSAGGMKPTVEVRPVPPSARMVVTITLPGSGKKVTIPVPDAPAPEEPERVIEEALAYVKTSSAGGSAGG [r6_331_JUSTAS]	< -1	-0.714 ± 0.47
SAGGSAGGMPSDTPFTITKITSVTLNDGRGTTKAVVSYPDGSLVTISSSELERLTKENPNLNLVSAGGSAGG [r6_78_JUSTAS]	-0.0536 ± 0.13	0.384 ± 0.062
SAGGSAGGNVKIEVEPGPNGNYLIKIRMPNGTKVEHQFDSPEDAEERAKDFAEEFPPNAQVEIWSAGGSAGG [r6_464_TrROS]	< -1	-0.00876 ± 0.14
SAGGSAGGSAEVEIKVRPDDPIPPNLPIVLPDGKERDARVEAVLDPEDGTPVFKVYFDPRSDSAGGSAGGSA [r18_476_TrMRF]	0.0528 ± 0.29	0.771 ± 0.048
